Assay results taken from the supplement of paper PMC7877785.
± gives the uncertainty stated by the source.

Experiment: self-splicing fitness, log relative to wild type (ln ratio); higher = more splicing; Tetrahymena group I intron in knt gene, E. coli kanamycin selection, DiMSum; sequences stand for … in CUCUCU…GGAGGGAAAAGUUAUCAGGCAUGCACCUGGUAGCUAGUCUUUAAACCAAUAGAUUGCAUCGGUUUAAAAGGCAAGACCGUCAAAUUGCGGGAAAGGGGUCAACAGCCGUUCAGUACCAAGUCUCAGGGGAAACUUUGAGAUGGCCUUGCAAAGGGUAUGGUAAUAAGCUGACGGACAUGGUCCUAACCACGCAGCCAAGUCCUAAGUCAACAGAUCUUCUGUUGAUAUGGAUGCAGUUCACAGACUAAAUGUCGGUCGGGGAAGAUGUAUUCUUCUCAUAAGAUAUAGUCGGACCUCUCCUUAAUGGGAGCUAGCGGAUGAAGUGAUGCAACACUGGAGCCGCUGGGAACUAAUUUGUAUGCGAAAGUAUAUUGAUUAGUUUUGGAGUACUCGUGGUCG
Method in brief: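 Fitness was computed with DiMSum as the error-weighted combination of replicate fold changes, kanamycin versus none, each normalised to wild type. The library randomised all eight intron nucleotides of the P1ex region, with the intron placed in the knt kanamycin-resistance gene on pET-22b(+) in E. coli BL21(DE3). Six replicate transformations were grown overnight at 37°C or 30°C on LB agar with or without 25 μg/mL kanamycin, plus 100 μg/mL carbenicillin, 50 μM IPTG and 0.2% rhamnose. Pooled colonies were amplicon-sequenced on an Illumina HiSeq 2500.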

## GGCAAGCAAUAUUACGUCCG
30 °C
  self-splicing fitness (ln): -3.73 ± 0.27
37 °C
  self-splicing fitness (ln): -1.61 ± 0.2

## GGCAAGCAAUAUUACGUGAA
30 °C
  self-splicing fitness (ln): -0.509 ± 0.091
37 °C
  self-splicing fitness (ln): 0.184 ± 0.11

## GGCAAGCAAUAUUACGUUCU
30 °C
  self-splicing fitness (ln): -0.68 ± 0.089
37 °C
  self-splicing fitness (ln): 0.436 ± 0.11

## GGCAAGCAAUAUUACGUUUC
30 °C
  self-splicing fitness (ln): -0.714 ± 0.1
37 °C
  self-splicing fitness (ln): -0.0706 ± 0.14

## GGCCAGCAAUAUUACGAAAG
30 °C
  self-splicing fitness (ln): -4.21 ± 0.37
37 °C
  self-splicing fitness (ln): -2.71 ± 0.41

## GGCCAGCAAUAUUACGAAGA
30 °C
  self-splicing fitness (ln): -3.15 ± 0.22
37 °C
  self-splicing fitness (ln): -2.85 ± 0.27

## GGCCAGCAAUAUUACGAAGU
30 °C
  self-splicing fitness (ln): -2.41 ± 0.39
37 °C
  self-splicing fitness (ln): -1.26 ± 0.26

## GGCCAGCAAUAUUACGACGA
30 °C
  self-splicing fitness (ln): -2.9 ± 0.16
37 °C
  self-splicing fitness (ln): -1.98 ± 0.12

## GGCCAGCAAUAUUACGAGGG
30 °C
  self-splicing fitness (ln): -3.58 ± 0.16
37 °C
  self-splicing fitness (ln): -1.75 ± 0.17

## GGCCAGCAAUAUUACGCACA
30 °C
  self-splicing fitness (ln): -0.344 ± 0.16
37 °C
  self-splicing fitness (ln): -0.177 ± 0.17

## GGCCAGCAAUAUUACGGGAC
30 °C
  self-splicing fitness (ln): -2.68 ± 0.12
37 °C
  self-splicing fitness (ln): -1.21 ± 0.15

## GGCCAGCAAUAUUACGGGAU
30 °C
  self-splicing fitness (ln): -1.73 ± 0.097
37 °C
  self-splicing fitness (ln): -0.354 ± 0.1

## GGCCAGCAAUAUUACGGGUU
30 °C
  self-splicing fitness (ln): -3.08 ± 0.17
37 °C
  self-splicing fitness (ln): -2.06 ± 0.19

## GGCCAGCAAUAUUACGGUCA
30 °C
  self-splicing fitness (ln): -0.963 ± 0.1
37 °C
  self-splicing fitness (ln): -0.389 ± 0.1

## GGCCAGCAAUAUUACGGUCU
30 °C
  self-splicing fitness (ln): -2.82 ± 0.15
37 °C
  self-splicing fitness (ln): -2.78 ± 0.3

## GGCCAGCAAUAUUACGUACC
30 °C
  self-splicing fitness (ln): -0.685 ± 0.13
37 °C
  self-splicing fitness (ln): 1.43 ± 0.17

## GGCCAGCAAUAUUACGUCAU
30 °C
  self-splicing fitness (ln): -1.7 ± 0.063
37 °C
  self-splicing fitness (ln): -1.27 ± 0.08

## GGCCAGCAAUAUUACGUGUA
30 °C
  self-splicing fitness (ln): -2.41 ± 0.083
37 °C
  self-splicing fitness (ln): -1.51 ± 0.1

## GGCCAGCAAUAUUACGUUAG
30 °C
  self-splicing fitness (ln): -3.38 ± 0.26
37 °C
  self-splicing fitness (ln): -2.82 ± 0.34

## GGCCAGCAAUAUUACGUUCA
30 °C
  self-splicing fitness (ln): -3.23 ± 0.23
37 °C
  self-splicing fitness (ln): -0.905 ± 0.19

## GGCGAGCAAUAUUACGAAAG
30 °C
  self-splicing fitness (ln): -3.27 ± 0.3
37 °C
  self-splicing fitness (ln): -2.77 ± 0.24

## GGCGAGCAAUAUUACGACCG
30 °C
  self-splicing fitness (ln): -0.74 ± 0.28
37 °C
  self-splicing fitness (ln): -0.371 ± 0.26

## GGCGAGCAAUAUUACGACGC
30 °C
  self-splicing fitness (ln): -1.89 ± 0.29

## GGCGAGCAAUAUUACGAGGG
30 °C
  self-splicing fitness (ln): -0.768 ± 0.24

## GGCGAGCAAUAUUACGAUCU
30 °C
  self-splicing fitness (ln): -0.834 ± 0.12
37 °C
  self-splicing fitness (ln): 0.229 ± 0.14

## GGCGAGCAAUAUUACGCAAA
30 °C
  self-splicing fitness (ln): -2.13 ± 0.19
37 °C
  self-splicing fitness (ln): -2.01 ± 0.14

## GGCGAGCAAUAUUACGCAAU
30 °C
  self-splicing fitness (ln): -2.22 ± 0.12
37 °C
  self-splicing fitness (ln): -0.788 ± 0.13

## GGCGAGCAAUAUUACGCACU
30 °C
  self-splicing fitness (ln): -2.83 ± 0.34
37 °C
  self-splicing fitness (ln): -1.07 ± 0.28

## GGCGAGCAAUAUUACGCCUC
30 °C
  self-splicing fitness (ln): -1.67 ± 0.33

## GGCGAGCAAUAUUACGCUAU
30 °C
  self-splicing fitness (ln): -2.55 ± 0.21
37 °C
  self-splicing fitness (ln): -1.11 ± 0.18

## GGCGAGCAAUAUUACGGACU
30 °C
  self-splicing fitness (ln): -0.419 ± 0.077
37 °C
  self-splicing fitness (ln): -0.219 ± 0.13

## GGCGAGCAAUAUUACGGAGG
30 °C
  self-splicing fitness (ln): -2.52 ± 0.34
37 °C
  self-splicing fitness (ln): -1.9 ± 0.45

## GGCGAGCAAUAUUACGGCGG
30 °C
  self-splicing fitness (ln): -2 ± 0.39
37 °C
  self-splicing fitness (ln): -1.28 ± 0.37

## GGCGAGCAAUAUUACGGCGU
30 °C
  self-splicing fitness (ln): -2.49 ± 0.21
37 °C
  self-splicing fitness (ln): -1.1 ± 0.2

## GGCGAGCAAUAUUACGGGCU
30 °C
  self-splicing fitness (ln): -2.07 ± 0.36
37 °C
  self-splicing fitness (ln): -1.23 ± 0.28

## GGCGAGCAAUAUUACGGUGG
30 °C
  self-splicing fitness (ln): -3.31 ± 0.24
37 °C
  self-splicing fitness (ln): -2.07 ± 0.22

## GGCGAGCAAUAUUACGUAAC
30 °C
  self-splicing fitness (ln): -2.52 ± 0.19
37 °C
  self-splicing fitness (ln): -0.781 ± 0.13

## GGCGAGCAAUAUUACGUCCA
30 °C
  self-splicing fitness (ln): -1.97 ± 0.14
37 °C
  self-splicing fitness (ln): -1.02 ± 0.12
